According to article PMC3836757:

What was measured:
[1] = biological target: RNA polymerase core enzyme;sigma 70 (RpoD) (Escherichia coli;Ehrlichia chaffeensis) (UniProt P0A7Z4+P0A8V2+P0A8T7+P0A800+Q2GG75); test: EMSA; conditions: 50 mM Tris-acetate pH 8.0, 50 mM K-acetate, 8.1 mM Mg-acetate, 27 mM NH4-acetate, 100 ug/ml BSA, 5% glycerol, 50 ug/ml poly(dI-dC), 20 fmol each probe and RNAP …
[2] = biological target: RNA polymerase core enzyme;sigma 32 (RpoH) (Escherichia coli;Ehrlichia chaffeensis) (UniProt P0A7Z4+P0A8V2+P0A8T7+P0A800+Q2GGG9); test: EMSA; conditions: 50 mM Tris-acetate pH 8.0, 50 mM K-acetate, 8.1 mM Mg-acetate, 27 mM NH4-acetate, 100 ug/ml BSA, 5% glycerol, 50 ug/ml poly(dI-dC), 20 fmol each probe and RNAP …

## CTGACGTAATATATTAAATTTTCCTTACAAAAGTTACCGATATTTTATACAAAAATTTATATTCTGACTTGCTTTTATATGACACTTCTACTATTGTTAATTTATTTGTCACTATTAGGTTATATATGAATTACA (double strand) [p28-Omp19 promoter probe]
[1]
  binding: binds
[2]
  binding: binds more weakly

## ATTGCAGATTAATTAATAATGCTTTAAGTAATAACAAATAAATTTAGTTGACTATATGAACTAACCTAATATCCTAAATCTTGTTCAGTTATGTAAAATTAGGAGTTAAAATTA (double strand) [hup promoter probe]
[1]
  binding: binds
[2]
  binding: binds more weakly

## TTCATAAATTTATGAACTTGTGTTAAATGGGGTTGTAATCTTATGATTTGGTTATTATATCTGTGATTATAGTTTTGATTTTTATGTAAGGGGGCTATTTATGGCTGTTATAGGTATAGATTTAGGTAC (double strand) [dnaK promoter probe]
[2]
  binding: binds

## AAGCAAGTCTACTCATATTTTTATTAATTAAGTAGTAAAGTTAACTATAGATTTTATTAAAATTTTTATTCTAATCACTTTAAATATCAATTACTTTTGTTGTAAATTTGAAAGAAATTTTATATTCTAGACTTGCTTTTCTTTATTTCTTTCATTATTCTTAAATTTTTATTATCTTTTATAAAAGGTTTATTAACATG (double strand) [p28-Omp14 promoter probe]
[1]
  binding: binds
[2]
  binding: binds more weakly

## TAACTTACTTAAAAAATTAACTACTTAAATATCAACGATGTTTTCAGTATCAAGTCAATTGATTTTTTATGTGTTATGTAAACTGTTACAGAGTAATATAATATTTCTACTGGGTCCTATAAAGTTCTAACCTTGTAAACATTTGTGCAATATGTATTATAAAATTTATTGATTGATACTTGAAATTAGATTTCTTGATATTATATATGATCTTAGCTAGTAGTATCTGATGCTACTGATAATTTATTTTTTTATAGAGGTAG (double strand) [groE promoter probe]
[2]
  binding: binds
